The values that follow come from publication PMC9779362, “The J Domain of Sacsin Disrupts Intermediate Filament Assembly” (International Journal of Molecular Sciences, 2022).

This data set deals with the molecule itself. As to the kind of experiment: negative-stain transmission electron microscopy of in vitro assembly; purified NFL (0.24 µg/µL) dialysed stepwise out of urea into assembly buffer, overnight at 4 °C; 2% uranyl acetate.

B1: recombinant human NFL (neurofilament light chain) (natural protein, UniProt P07196 1-543, looked up)
chain: MSSFSYEPYYSTSYKRRYVETPRVHISSVRSGYSTARSAYSSYSAPVSSSLSVRRSYSSSSGSLMPSLENLDLSQVAAISNDLKSIRTQEKAQLQDLNDRFASFIERVHELEQQNKVLEAELLVLRQKHSEPSRFRALYEQEIRDLRLAAEDATNEKQALQGEREGLEETLRNLQARYEEEVLSREDAEGRLMEARKGADEAALARAELEKRIDSLMDEISFLKKVHEEEIAELQAQIQYAQISVEMDVTKPDLSAALKDIRAQYEKLAAKNMQNAEEWFKSRFTVLTESAAKNTDAVRAAKDEVSESRRLLKAKTLEIEACRGMNEALEKQLQELEDKQNADISAMQDTINKLENELRTTKSEMARYLKEYQDLLNVKMALDIEIAAYRKLLEGEETRLSFTSVGSITSGYSQSSQVFGRSAYGGLQTSSYLMSTRSFPSYYTSHVQEEQIEVEETIEAAKAEEAKDEPPSEGEAEEEEKDKEEAEEEEAAEEEEAAKEESEEAKEEEEGGEGEEGEETKEAEEEEKKVEGAGEEQAAKKKD
notes: neurofilament light polypeptide (NFL), human, cloned into pET23b (gift of Dr. Walter Mushynski); Used as assembled filaments (TEM, sedimentation) and as the soluble fraction after centrifugation (pull-down); also called soluble recombinant NFL; source: bacteria (pET23b), inclusion bodies solubilised in 8 M urea, purified on hydroxyapatite, dialysed into assembly buffer
For the protein B1, the binding result is listed as “binds”.
